Consider 1 molecule from publication PMC11848091 (Heliyon, 2025).

The term Kd denotes the free concentration of one partner at which half of the binding sites on the other are occupied at equilibrium, for simple one-to-one binding. Higher therefore signals weaker binding. The term koff denotes a measure of how fast the partners let go of each other. A word on the kon: it is the second-order rate constant of association. A high value points to faster complex formation.

What all share (assay): SPR
One experiment has as its target Human CD163 (human, UniProt Q86VB7).
The target in another experiment is Mouse CD163 (mouse, UniProt Q2VLH6).
Mouse CD163, sequence (Q2VLH6 39-1045): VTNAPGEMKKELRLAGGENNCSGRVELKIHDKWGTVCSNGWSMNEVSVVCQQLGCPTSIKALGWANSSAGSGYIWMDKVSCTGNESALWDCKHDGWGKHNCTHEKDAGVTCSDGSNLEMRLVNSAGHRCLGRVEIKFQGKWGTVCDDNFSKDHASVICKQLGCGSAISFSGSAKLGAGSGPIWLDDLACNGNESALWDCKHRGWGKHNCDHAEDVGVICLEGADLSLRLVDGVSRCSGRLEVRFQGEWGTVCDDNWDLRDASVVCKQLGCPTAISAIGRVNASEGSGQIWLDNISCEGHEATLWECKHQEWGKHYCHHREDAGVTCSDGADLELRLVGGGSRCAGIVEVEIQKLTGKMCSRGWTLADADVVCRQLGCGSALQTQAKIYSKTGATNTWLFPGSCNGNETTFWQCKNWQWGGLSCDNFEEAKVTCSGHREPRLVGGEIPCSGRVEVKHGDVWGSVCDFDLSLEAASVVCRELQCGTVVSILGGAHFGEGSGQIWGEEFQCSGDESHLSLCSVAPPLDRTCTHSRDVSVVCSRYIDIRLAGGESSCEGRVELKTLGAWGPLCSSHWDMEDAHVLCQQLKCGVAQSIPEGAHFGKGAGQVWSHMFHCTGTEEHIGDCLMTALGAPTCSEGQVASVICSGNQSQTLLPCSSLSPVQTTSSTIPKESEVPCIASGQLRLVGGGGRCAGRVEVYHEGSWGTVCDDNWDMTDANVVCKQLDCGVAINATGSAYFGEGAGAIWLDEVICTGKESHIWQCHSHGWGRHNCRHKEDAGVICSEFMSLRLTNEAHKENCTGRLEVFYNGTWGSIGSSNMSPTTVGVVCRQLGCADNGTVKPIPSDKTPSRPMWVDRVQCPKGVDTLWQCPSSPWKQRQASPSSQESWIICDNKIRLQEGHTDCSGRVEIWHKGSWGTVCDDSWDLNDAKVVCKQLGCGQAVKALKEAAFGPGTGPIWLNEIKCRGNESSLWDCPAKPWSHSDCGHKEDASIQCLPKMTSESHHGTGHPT
A further experiment addresses T1, Mouse TNFR1 (mouse, UniProt P25118).
T1 sequence: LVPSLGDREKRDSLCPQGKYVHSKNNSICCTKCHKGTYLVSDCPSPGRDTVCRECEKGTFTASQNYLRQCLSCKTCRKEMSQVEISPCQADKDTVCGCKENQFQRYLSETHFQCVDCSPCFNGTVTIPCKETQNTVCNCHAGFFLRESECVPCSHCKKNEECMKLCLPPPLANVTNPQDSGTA

Human CD163, sequence (Q86VB7 42-1050): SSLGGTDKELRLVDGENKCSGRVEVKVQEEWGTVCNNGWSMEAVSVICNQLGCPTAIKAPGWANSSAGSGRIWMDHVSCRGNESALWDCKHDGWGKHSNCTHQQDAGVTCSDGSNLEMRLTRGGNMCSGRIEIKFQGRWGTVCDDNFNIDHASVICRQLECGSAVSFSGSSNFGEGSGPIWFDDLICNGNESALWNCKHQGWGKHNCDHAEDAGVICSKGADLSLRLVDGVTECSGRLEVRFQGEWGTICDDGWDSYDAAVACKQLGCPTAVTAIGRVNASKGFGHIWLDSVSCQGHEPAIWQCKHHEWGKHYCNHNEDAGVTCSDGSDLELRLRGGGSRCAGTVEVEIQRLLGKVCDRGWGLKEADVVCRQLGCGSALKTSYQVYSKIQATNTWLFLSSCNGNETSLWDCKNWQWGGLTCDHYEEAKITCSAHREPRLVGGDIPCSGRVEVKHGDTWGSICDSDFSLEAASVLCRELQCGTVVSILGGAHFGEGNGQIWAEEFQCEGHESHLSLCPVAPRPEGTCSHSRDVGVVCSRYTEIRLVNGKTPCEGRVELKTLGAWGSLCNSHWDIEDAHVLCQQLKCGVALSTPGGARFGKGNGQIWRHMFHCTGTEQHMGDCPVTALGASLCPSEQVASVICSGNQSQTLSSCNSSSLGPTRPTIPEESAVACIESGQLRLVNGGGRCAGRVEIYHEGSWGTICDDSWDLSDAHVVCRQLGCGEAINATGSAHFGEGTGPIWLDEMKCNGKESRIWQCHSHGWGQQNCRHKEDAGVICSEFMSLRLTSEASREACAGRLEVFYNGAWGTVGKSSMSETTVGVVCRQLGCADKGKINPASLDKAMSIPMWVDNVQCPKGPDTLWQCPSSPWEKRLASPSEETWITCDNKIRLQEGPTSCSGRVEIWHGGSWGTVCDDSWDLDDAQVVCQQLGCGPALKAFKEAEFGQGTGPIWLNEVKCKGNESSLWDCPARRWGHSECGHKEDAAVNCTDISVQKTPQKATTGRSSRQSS

B1: Mouse TNF (ligand)
chain: LRSSSQNSSDKPVAHVVANHQVEEQLEWLSQRANALLANGMDLKDNQLVVPADGLYLVYSQVLFKGQGCPDYVLLTHTVSRFAISYQEKVNLLSAVKSPCPKDTPEGAELKPWYEPIYLGGVFQLEKGDQLSAEVNLPKYLDFAESGQVYFGVIAL
In the experiment with Human CD163, B1 returned a dissociation constant (Kd) of 1.93 nM, a koff of 0.000151 s⁻¹ and a kon of 78500 M⁻¹ s⁻¹. In addition, in the experiment with Mouse CD163, the affinity, expressed as Kd, was 0.093 nM; the koff worked out at 0.000232 s⁻¹; the kon is 2.5e+06 M⁻¹ s⁻¹. Moreover, in the experiment with Mouse TNFR1, binding was characterised by a dissociation constant (Kd) of 69.6 nM, the koff worked out at 0.000379 s⁻¹ and the association rate constant (kon) turned out to be 5450 M⁻¹ s⁻¹.
